Measurements published in PMC10644352, “Bromodomain Factor 5 as a Target for Antileishmanial Drug Discovery” (ACS Infectious Diseases, 2023).
pKd: −log10 of the molar value.

Assays:
[1] = target: 5-FAM-labeled H2B(17-23)K19Ac K21Ac peptide of L. donovani histone H2B (Leishmania donovani); assay: fluorescence polarisation; 800 nM 5-FAM peptide, protein 0-300 μM; 20 mM HEPES, 500 mM NaCl, 1 mg/mL BSA, pH 7.5; 30 min at room temperature; one-site-specific binding fit (two-site for BD5T); n = 3
[2] = target: 5-FAM-labeled H2B(8-16)K9Ac K15Ac peptide of L. donovani histone H2B (Leishmania donovani); assay: as above
[3] = target: 5-FAM-labeled H2B(9-23)K9Ac K15Ac K19Ac K21Ac peptide of L. donovani histone H2B (Leishmania donovani); assay: as above
[4] = target: unlabeled pan-acetylated peptide based on the H2B(9-23) sequence of L. donovani histone H2B (Leishmania donovani); assay: thermal shift assay; 2.1 μM BD5T, 2x SYPRO orange, peptide at 400 μM, 20 mM HEPES, 500 mM NaCl, pH 7.5; 25 to 95 °C; n = 6

| pKd [1] | pKd [2] | pKd [3] | ΔTm at 400 μM peptide [4] [°C] | Substance |
| --- | --- | --- | --- | --- |
| 4.11 | 3.77 | 3.93 |  | Leishmania donovani bromodomain factor 5 (LdBDF5) first bromodomain, recombinant BD5.1 (domain or fragment) |
| 3.80 | 3.44 | 3.33 |  | Leishmania donovani bromodomain factor 5 (LdBDF5) second bromodomain, recombinant BD5.2 (domain or fragment) |
|  |  |  | 0.6 | Leishmania donovani bromodomain factor 5 (LdBDF5) tandem bromodomain pair, recombinant BD5T (domain or fragment) |
